Experimental data: publication PMC10143966, “The Replicative DnaE Polymerase of Bacillus subtilis Recruits the Glycolytic Pyruvate Kinase (PykA) When Bound to Primed DNA Templates” (Life, 2023)
Where two headings read alike, the source gives them in different places.

Tests used:
[1] = molecular target: T1, B. subtilis DnaE polymerase (B. subtilis, UniProt O34623 1-1115); experiment: SPR; 5'-biotinylated primed DNA probe (30 mer annealed to 110 mer) immobilised on a streptavidin SA chip (about 100 RU); DnaE (35 nM) added with increasing concentrations of PykA (0-1000 nM), CAT or PEPut; Biacore T200, 200 uL/min, 25 °C, 25 mM NaCl, 25 mM MgCl2, 150 mM Tris-HCl pH 7.5, 1 mM DTT; maximum RU values fitted to a one site-specific binding curve
T1 construct: DnaE DNA polymerase, Bacillus subtilis; also called replicative DnaE polymerase; lagging strand DNA polymerase
T1 sequence (looked up): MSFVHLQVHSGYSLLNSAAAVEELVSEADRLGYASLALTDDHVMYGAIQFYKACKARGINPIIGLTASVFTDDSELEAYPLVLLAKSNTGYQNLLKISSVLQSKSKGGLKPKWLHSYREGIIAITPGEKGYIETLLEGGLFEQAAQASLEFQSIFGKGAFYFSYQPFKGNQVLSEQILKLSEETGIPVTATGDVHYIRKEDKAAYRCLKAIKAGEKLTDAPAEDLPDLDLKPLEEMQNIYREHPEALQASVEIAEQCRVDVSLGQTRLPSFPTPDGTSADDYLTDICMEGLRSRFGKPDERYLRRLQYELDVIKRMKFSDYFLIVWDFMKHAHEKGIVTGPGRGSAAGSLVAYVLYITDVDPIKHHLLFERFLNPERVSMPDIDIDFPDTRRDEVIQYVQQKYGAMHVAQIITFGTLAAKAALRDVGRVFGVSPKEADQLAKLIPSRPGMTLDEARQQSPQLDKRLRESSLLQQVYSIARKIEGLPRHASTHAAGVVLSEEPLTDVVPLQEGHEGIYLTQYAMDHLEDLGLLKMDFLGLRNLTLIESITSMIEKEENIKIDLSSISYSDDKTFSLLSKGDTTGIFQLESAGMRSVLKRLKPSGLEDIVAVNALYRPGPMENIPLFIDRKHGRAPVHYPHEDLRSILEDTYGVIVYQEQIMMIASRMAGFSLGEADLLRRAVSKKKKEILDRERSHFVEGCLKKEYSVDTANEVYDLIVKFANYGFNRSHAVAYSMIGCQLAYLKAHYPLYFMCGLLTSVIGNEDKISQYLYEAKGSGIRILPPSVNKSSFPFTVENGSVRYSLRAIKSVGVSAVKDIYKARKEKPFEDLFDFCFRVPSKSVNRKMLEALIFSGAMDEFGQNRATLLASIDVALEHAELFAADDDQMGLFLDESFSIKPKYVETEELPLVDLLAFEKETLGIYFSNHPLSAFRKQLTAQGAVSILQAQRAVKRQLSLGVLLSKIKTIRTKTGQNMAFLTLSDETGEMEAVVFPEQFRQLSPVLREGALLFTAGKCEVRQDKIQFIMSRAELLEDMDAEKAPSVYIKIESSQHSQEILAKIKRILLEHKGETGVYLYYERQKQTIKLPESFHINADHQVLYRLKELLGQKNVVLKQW

[2] = molecular target: DnaE polymerase;PykA pyruvate kinase (Bacillus subtilis;Bacillus subtilis, UniProt O34623;P80885 1-1115;1-585, |); experiment: SPR; PykA titrated (0-1000 nM) onto DnaE (35 nM) on DNA; Kd is for PykA to DnaE-DNA complex; 25 mM MgCl2; SPR (Biacore T200, SA chip): 25 mM NaCl, 25 mM MgCl2, 150 mM Tris-HCl pH 7.5, 1 mM DTT, 25 °C; conditions: protein: recombinant;recombinant; tags: ;His-MBP removed by TEV; copies: 1;4; label: 5' biotin on 110 mer (strand 1); 30 mer primer annealed to 110 mer template, ssDNA on both sides; 5' A of the primer may be near/at the CCCCCT junction
DnaE polymerase = DnaE polymerase (Bacillus subtilis, UniProt O34623 1-1115); experiment: SPR; 25 mM MgCl2; DnaE 0-700 nM; SPR (Biacore T200, SA chip): 25 mM NaCl, 25 mM MgCl2, 150 mM Tris-HCl pH 7.5, 1 mM DTT, 25 °C; conditions: protein: recombinant; label: 5' biotin on 110 mer (strand 1); 30 mer primer annealed to 110 mer template, ssDNA on both sides; 5' A of the primer may be near/at the CCCCCT junction
PykA PEPut domain = molecular target: T2, PykA PEPut domain (Bacillus subtilis, UniProt P80885 494-585); experiment: SPR; no DnaE; 25 mM MgCl2; SPR (Biacore T200, SA chip): 25 mM NaCl, 25 mM MgCl2, 150 mM Tris-HCl pH 7.5, 1 mM DTT, 25 °C; conditions: protein: recombinant; tags: His-MBP removed by TEV; label: 5' biotin on 110 mer (strand 1); 30 mer primer annealed to 110 mer template, ssDNA on both sides; 5' A of the primer may be near/at the CCCCCT junction
T2 sequence: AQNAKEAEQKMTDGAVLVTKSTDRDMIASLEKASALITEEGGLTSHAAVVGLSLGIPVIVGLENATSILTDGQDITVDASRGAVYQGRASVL

PykA pyruvate kinase = molecular target: T3, PykA pyruvate kinase (Bacillus subtilis, UniProt P80885 1-585); experiment: as above; conditions: protein: recombinant; tags: His-MBP removed by TEV; chain copies: 4; label: 5' biotin on 110 mer (strand 1); 30 mer primer annealed to 110 mer template, ssDNA on both sides; 5' A of the primer may be near/at the CCCCCT junction
T3 sequence: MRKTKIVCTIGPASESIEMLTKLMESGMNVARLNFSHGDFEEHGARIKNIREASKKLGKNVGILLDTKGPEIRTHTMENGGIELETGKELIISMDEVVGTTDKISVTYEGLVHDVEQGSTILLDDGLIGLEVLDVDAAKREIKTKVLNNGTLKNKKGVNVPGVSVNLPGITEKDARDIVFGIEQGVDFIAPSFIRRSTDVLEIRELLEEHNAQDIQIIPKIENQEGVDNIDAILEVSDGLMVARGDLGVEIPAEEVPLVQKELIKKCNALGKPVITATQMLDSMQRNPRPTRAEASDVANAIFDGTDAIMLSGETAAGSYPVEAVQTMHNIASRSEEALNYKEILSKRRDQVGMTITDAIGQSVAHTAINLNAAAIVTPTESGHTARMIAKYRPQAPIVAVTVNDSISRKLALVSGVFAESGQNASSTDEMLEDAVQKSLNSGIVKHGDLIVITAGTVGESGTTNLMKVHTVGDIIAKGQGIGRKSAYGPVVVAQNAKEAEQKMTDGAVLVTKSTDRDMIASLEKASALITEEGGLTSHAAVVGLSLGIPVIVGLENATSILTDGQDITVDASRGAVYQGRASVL

PykA CAT domain = molecular target: T4, PykA CAT domain (Bacillus subtilis, UniProt P80885 2-473); experiment: as above; conditions: protein: recombinant; tags: His-MBP removed by TEV; label: 5' biotin on 110 mer (strand 1); 30 mer primer annealed to 110 mer template, ssDNA on both sides; 5' A of the primer may be near/at the CCCCCT junction
T4 sequence: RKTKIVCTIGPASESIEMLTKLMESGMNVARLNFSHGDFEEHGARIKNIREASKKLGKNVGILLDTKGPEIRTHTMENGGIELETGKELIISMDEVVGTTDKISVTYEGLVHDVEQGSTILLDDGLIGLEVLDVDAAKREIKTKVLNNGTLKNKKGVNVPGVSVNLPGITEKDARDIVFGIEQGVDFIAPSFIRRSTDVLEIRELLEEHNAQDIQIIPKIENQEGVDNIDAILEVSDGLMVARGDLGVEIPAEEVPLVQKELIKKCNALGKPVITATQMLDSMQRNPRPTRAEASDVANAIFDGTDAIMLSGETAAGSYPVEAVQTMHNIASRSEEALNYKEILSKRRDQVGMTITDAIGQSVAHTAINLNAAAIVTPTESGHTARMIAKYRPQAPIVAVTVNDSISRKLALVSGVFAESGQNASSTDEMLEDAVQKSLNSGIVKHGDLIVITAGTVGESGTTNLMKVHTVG

[3] = molecular target: DnaE polymerase;PykA CAT domain (Bacillus subtilis;Bacillus subtilis, UniProt O34623;P80885 1-1115;2-473, |); experiment: SPR; CAT titrated onto DnaE (35 nM) on DNA; Kd is for CAT to DnaE-DNA complex; 25 mM MgCl2; SPR (Biacore T200, SA chip): 25 mM NaCl, 25 mM MgCl2, 150 mM Tris-HCl pH 7.5, 1 mM DTT, 25 °C; conditions: protein: recombinant;recombinant; tags: ;His-MBP removed by TEV; label: 5' biotin on 110 mer (strand 1); 30 mer primer annealed to 110 mer template, ssDNA on both sides; 5' A of the primer may be near/at the CCCCCT junction

CAT domain of B. subtilis PykA (domain or fragment)
Kd [1]: 7.33 nM

B1: B. subtilis pyruvate kinase PykA, full-length, wild type (enzyme, UniProt P80885 1-585, looked up)
chain: MRKTKIVCTIGPASESIEMLTKLMESGMNVARLNFSHGDFEEHGARIKNIREASKKLGKNVGILLDTKGPEIRTHTMENGGIELETGKELIISMDEVVGTTDKISVTYEGLVHDVEQGSTILLDDGLIGLEVLDVDAAKREIKTKVLNNGTLKNKKGVNVPGVSVNLPGITEKDARDIVFGIEQGVDFIAPSFIRRSTDVLEIRELLEEHNAQDIQIIPKIENQEGVDNIDAILEVSDGLMVARGDLGVEIPAEEVPLVQKELIKKCNALGKPVITATQMLDSMQRNPRPTRAEASDVANAIFDGTDAIMLSGETAAGSYPVEAVQTMHNIASRSEEALNYKEILSKRRDQVGMTITDAIGQSVAHTAINLNAAAIVTPTESGHTARMIAKYRPQAPIVAVTVNDSISRKLALVSGVFAESGQNASSTDEMLEDAVQKSLNSGIVKHGDLIVITAGTVGESGTTNLMKVHTVGDIIAKGQGIGRKSAYGPVVVAQNAKEAEQKMTDGAVLVTKSTDRDMIASLEKASALITEEGGLTSHAAVVGLSLGIPVIVGLENATSILTDGQDITVDASRGAVYQGRASVL
notes: PykA pyruvate kinase, Bacillus subtilis; 1755 bp pykA fragment amplified from genomic DNA, cloned into p2CT; the same vector gives an N-terminal tag for PEPut; Tetramer: legends give 16 nM monomers as 4 nM tetramers; also called full-length PykA; wild-type PykA; source: E. coli Rosetta (DE3), purified (HisTrap IMAC, TEV cleavage, reverse IMAC, Superdex 200 gel filtration)
Kd ([1]; both partners purified): 14.6 nM

B2: primed probe, 30 mer on 5'-biotinylated 110 mer (mixed)
DNA 1: CACACACACACACACACACACACACACACACACACACACACACACACACACACACACACCCCCTTTAAAAAAAAAAAAAAAAGCCAAAAGCAGTGCCAAGCTTGCATGCC
DNA 2: AGGGGGTGTGTGTGTGTGTGTGTGTGTGTG
Kd [2]: 14.6 nM | Kd (DnaE polymerase): 146 nM | binding result (PykA PEPut domain): no binding | binding result (PykA pyruvate kinase): no binding | binding result (PykA CAT domain): no binding | Kd [3]: 7.33 nM
